The chains are these.
B1: Atg40^234–252 peptide [S. cerevisiae] / Atg8 (1-116) K26P [S. cerevisiae] (parent complex)
chain 1: TSTEFPNDYDFMEDILDET
chain 2: MKSTFKSEYPFEKRKAESERIADRFPNRIPVICEKAEKSDIPEIDKRKYLVPADLTVGQFVYVIRKRIMLPPEKAIFIFVNDTLPPTAALMSAIYQEHKDKDGFLYVTYSGENTFG

Variants of B1 are the subject of one test. Put plainly: ITC.
Take chain 1 Y9A: the Kd worked out at 32.7 µM.

In the case of chain 1 F5A, the Kd was determined as 4.31 µM.

A further test covers variants of B1. In words: ITC. The source holds these as a separate data set.
On to chain 2 R67A, for which the Kd was 24.8 µM.

The values are drawn from publication PMC7335187 (2020).
